Target: the molecule itself
Assay: SEC; analytical gel filtration, Superdex 75 10/300 GL, 20 mM Tris pH 8.0, 100 mM NaCl, 1 mM TCEP; 300 ul of 1 mM protein loaded; calibrated with protein standards (6.5-75 kDa)

B1: Deinococcus radiodurans RecJ-like (DrRecJ-like), wild type (enzyme, UniProt Q9RW43 1-338, looked up)
chain: MTAENSATPDYRRNVGAVADALLAHPGPIVVLSHENPDGDALGSVLGLSRALRTLGKTVLAPMTVPHYLSFLPQPGELTAPLESWPQGALAAVLDVDNNDPVRVAGADLTQFDGPVVNVDHHGTNLRRADAGVVDPSKPAAAMMVADVIDALGAPWSEAVATPLMLGLNTDTGNFAFDSVSAETFECAARLRAHGARIGWLNDQMRQNPQSYYLLLREVLGKLEFLHGGRVVQTRVDEEMLARAGATWEQVENYVSMLRNAEGAQLAVMAKDYGDRVKFSLRSRGPVSAQNIAVALGGGGHVPAAGATVISSYAEARARLDAAIEAELARVDAQATAE
notes: RecJ-like protein (DR_0826) of Deinococcus radiodurans, full-length gene, residues 1-338, amplified from genomic DNA; DHH and DHHA1 domains; Tag-free after TEV cleavage of the His-MBP-TEV fusion (vector pET28-HMT); also called DrRecJ-like^wt; DrNrnA; source: E. coli Rossetta (DE3), purified (His-tag column, HiTrap Q, TEV tag removal, Superdex 75); not shown: His6, N-terminal, cleaved; MBP, …
With B1 the “stoichiometry N” value was 2.

Source: paper PMC11229311, “Structural and functional investigation of the DHH/DHHA1 family proteins in Deinococcus radiodurans” (Nucleic Acids Research, 2024)
